We go through 15 substances from patent US11548914B2, “IL-2Rgamma binding compounds” (MEDIKINE, INC., priority 2018, dated 2023).

Assay [1] deals with T1, extracellular domain (ECD) of IL-2Rβ (Homo sapiens, UniProt P14784).
T1 construct: Fc; purchased ACRObiosystems, Inc. ILB-H5253
T1 sequence (P14784 27-239): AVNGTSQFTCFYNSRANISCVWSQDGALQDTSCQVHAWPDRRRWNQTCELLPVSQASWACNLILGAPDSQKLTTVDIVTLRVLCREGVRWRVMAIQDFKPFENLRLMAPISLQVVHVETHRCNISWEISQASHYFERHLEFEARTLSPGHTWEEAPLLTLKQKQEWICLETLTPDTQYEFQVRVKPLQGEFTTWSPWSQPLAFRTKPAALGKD
The experiment in a line: competitive binding of synthetic peptides against phage clones on IL-2Rβ. As to conditions: for competition with phage clone peptide SEQ ID NO: 58: phage family 1; for competition with phage clone peptide SEQ ID NO: 170: phage family 2A; for competition with phage clone peptide SEQ ID NO: 83: phage family 2B; for competition with phage clone peptide SEQ ID NO: 1034: phage family 2C; for competition with phage clone peptide SEQ ID NO: 1044: phage family 4. Here is the method: (§1) Representative phage clones displaying peptides from IL-2Rβ ligand families were bound to the extracellular domain (ECD) of IL-2Rβ immobilized in microtiter wells. Phage binding was conducted in the presence and absence of synthetic test peptides to determine if phage peptides and test peptides competed for binding to the same sites on IL-2Rβ . Synthetic test peptides were selected to represent peptides from IL-2Rβ ligand families, as well positive and negative control peptides.
(§2) Phage binding to the immobilized IL-2Rβ ECD was detected by staining with antibody against phage coat proteins (anti-phage Ab), staining with labeled secondary antibody against the anti-phage Ab, and scored by reading OD in the microtiter plate optical reader.
(§3) The ELISA signal for each phage binding in the presence and absence of the test peptides was compared to determine which synthetic peptides competed with which phage peptides for binding to the IL-2Rβ subunit.

The target in another assay is T2, IL-2Rγc subunit (Homo sapiens, UniProt P31785).
T2 construct: Fc; purchased ACRObiosystems, Inc. ILG-H5256
T2 sequence (P31785 23-254): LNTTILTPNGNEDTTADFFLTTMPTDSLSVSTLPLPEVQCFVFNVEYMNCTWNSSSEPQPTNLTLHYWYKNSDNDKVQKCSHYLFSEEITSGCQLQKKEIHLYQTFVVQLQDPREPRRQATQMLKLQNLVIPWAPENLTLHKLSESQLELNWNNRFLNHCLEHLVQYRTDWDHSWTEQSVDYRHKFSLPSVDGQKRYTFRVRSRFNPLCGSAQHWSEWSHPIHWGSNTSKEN
In words: competitive binding of synthetic peptides against phage clones on IL-2Rγc. Conditions: for competition with phage clone peptide SEQ ID NO 198: phage family 1A; for competition with phage clone peptide SEQ ID NO 224: phage family 1B; for competition with phage clone peptide SEQ ID NO 236: phage family 2; for competition with phage clone peptide SEQ ID NO 248: phage family 3; for competition with phage clone peptide SEQ ID NO 266: phage family 4; for competition with phage clone peptide SEQ ID NO 948: phage family 5. The protocol: as §1, §2, §3
A similar study was performed to evaluate the binding of IL-2Rγc ligands.

A further assay deals with NK-92 cells. The experiment in a line: STAT5 phosphorylation in NK-92 cells. Conditions: NK-92 cells, 10, 1, 0.1 μM, 30 min. In kind it is cell-based, human.

Ends that are not written are not given here.

Description for NK-92 cells: NK-92 cells were seeded in a 24-well plate at 4×10^5 cells, in 1 mL starvation medium (SM), and incubated overnight at 37° C., 5% CO2. The starvation medium contained RPMI 1640+20% FBS+2 mM L-glutamine+1 mM NaPyr+10 mM HEPES+0.1 mM BME (no rhIL-2 supplement).
Treatment mixtures were of 1 μg/mL Anti-hIL-2 neutralizing antibody (0.2 mg/mL stock) or goat IgG control (1 mg/mL stock) were prepared.
The treatment mixtures and the antibody mix were added to the cells for 30 min at 37° C., 5% CO2. Each sample was then transferred to a 1.5 mL microfuge tube and spun down at 1,500 RPM for 5 minutes. The cells were washed in 1 mL PBS and centrifuged again.
A phosphatase and protease inhibitor cocktail (Thermo #78442) were added to mPER buffer at a 1:100 dilution. After the cells were pelleted, 50 μL of mPER buffer was added to each sample and pipetted repeatedly to homogenize.
The lysates were centrifuged at 14,000 RPM for 5 min at RT. The supernatants were transferred to clean tubes and stored frozen at −80° C.
The treatment reagents included Anti-STAT5 Antibody (rabbit), Cell Signaling No. 94205S; Anti-pSTAT5 Antibody (rabbit), Cell Signaling No. 4322S; and Goat anti-rabbit IgG-HRP, Jackson Immunoresearch No. 111-035-144.

Turning to 58 (YDCRIAQVGELCDL) [Peptide 58], in assay [1], the “competition with phage clone peptide SEQ ID NO: 58” value is “+^1 (Peptide competes with phage binding.)”, the “competition with phage clone peptide SEQ ID NO: 170” value was “+ (Peptide competes with phage binding.)”, the “competition with phage clone peptide SEQ ID NO: 83” value is “+ (Peptide competes with phage binding.)” and the “competition with phage clone peptide SEQ ID NO: 1034” value was “+ (Peptide competes with phage binding.)”. Besides, the “competition with phage clone peptide SEQ ID NO: 1044” value in assay [1] is reported as “−”. In the assay with IL-2Rγc subunit, the “competition with phage clone peptide SEQ ID NO 198” value was “−”, the “competition with phage clone peptide SEQ ID NO 224” value is listed as “−”, the “competition with phage clone peptide SEQ ID NO 236” value is “−” and the “competition with phage clone peptide SEQ ID NO 248” value is on record as “−”. In the assay with IL-2Rγc subunit, the “competition with phage clone peptide SEQ ID NO 266” value is on record as “−” and the “competition with phage clone peptide SEQ ID NO 948” value is “−”.

Take 58 (YDCRIAQVGELCDL) [compound 58]: the “competition for binding to the IL-2Rγc binding site with the group of IL-2Rγc ligands” value with IL-2Rγc subunit was “does not compete”.

For the substance 169 (NMCLVGDYWPSCQI) [Peptide 169], in assay [1], the “competition with phage clone peptide SEQ ID NO: 58” value is “+ (Peptide competes with phage binding.)”, the “competition with phage clone peptide SEQ ID NO: 170” value was “+ (Peptide competes with phage binding.)”, the “competition with phage clone peptide SEQ ID NO: 83” value was “+ (Peptide competes with phage binding.)” and the “competition with phage clone peptide SEQ ID NO: 1034” value is listed as “+ (Peptide competes with phage binding.)”. Besides, the “competition with phage clone peptide SEQ ID NO: 1044” value in assay [1] was “−”.

For the substance 202 (RTCTEWENVVLCWV) [Peptide 202], in the assay with IL-2Rγc subunit, the “competition with phage clone peptide SEQ ID NO 198” value was “+^1 (Peptide competes with phage binding.)”, the “competition with phage clone peptide SEQ ID NO 224” value is recorded as “+ (Peptide competes with phage binding.)”, the “competition with phage clone peptide SEQ ID NO 236” value is listed as “+ (Peptide competes with phage binding.)” and the “competition with phage clone peptide SEQ ID NO 248” value is recorded as “+ (Peptide competes with phage binding.)”. In the assay with IL-2Rγc subunit, the “competition with phage clone peptide SEQ ID NO 266” value was “+ (Peptide competes with phage binding.)” and the “competition with phage clone peptide SEQ ID NO 948” value is listed as “−”.

For the substance 224 (DCSMWEGVELCW) [Peptide 224], in assay [1], the “competition with phage clone peptide SEQ ID NO: 58” value is recorded as “−”, the “competition with phage clone peptide SEQ ID NO: 170” value was “−”, the “competition with phage clone peptide SEQ ID NO: 83” value was “−” and the “competition with phage clone peptide SEQ ID NO: 1034” value is “−”. In addition, the “competition with phage clone peptide SEQ ID NO: 1044” value in assay [1] is recorded as “−”. In the assay with IL-2Rγc subunit, the “competition with phage clone peptide SEQ ID NO 198” value is reported as “+ (Peptide competes with phage binding.)”, the “competition with phage clone peptide SEQ ID NO 224” value is on record as “+ (Peptide competes with phage binding.)”, the “competition with phage clone peptide SEQ ID NO 236” value is on record as “+ (Peptide competes with phage binding.)” and the “competition with phage clone peptide SEQ ID NO 248” value is recorded as “+ (Peptide competes with phage binding.)”. Besides, in the assay with IL-2Rγc subunit, the “competition with phage clone peptide SEQ ID NO 266” value is given as “+ (Peptide competes with phage binding.)” and the “competition with phage clone peptide SEQ ID NO 948” value was “−”.

For 224 (DCSMWEGVELCW) [compound 224], the “competition for binding to the IL-2Rβ binding site with the group of IL-2Rβ ligands” value in assay [1] was “does not compete”.

In the case of 236 (MCWLEWGEWVGSCL) [Peptide 236], in the assay with IL-2Rγc subunit, the “competition with phage clone peptide SEQ ID NO 198” value is “+ (Peptide competes with phage binding.)”, the “competition with phage clone peptide SEQ ID NO 224” value is on record as “+ (Peptide competes with phage binding.)”, the “competition with phage clone peptide SEQ ID NO 236” value is given as “+ (Peptide competes with phage binding.)” and the “competition with phage clone peptide SEQ ID NO 248” value is “+ (Peptide competes with phage binding.)”. Further, in the assay with IL-2Rγc subunit, the “competition with phage clone peptide SEQ ID NO 266” value is “+ (Peptide competes with phage binding.)” and the “competition with phage clone peptide SEQ ID NO 948” value was “−”.

Regarding 248 (DLSDLCTFWLSQ) [Peptide 248], in the assay with IL-2Rγc subunit, the “competition with phage clone peptide SEQ ID NO 198” value was “+ (Peptide competes with phage binding.)”, the “competition with phage clone peptide SEQ ID NO 224” value is “+ (Peptide competes with phage binding.)”, the “competition with phage clone peptide SEQ ID NO 236” value was “+ (Peptide competes with phage binding.)” and the “competition with phage clone peptide SEQ ID NO 248” value is “+ (Peptide competes with phage binding.)”. Moreover, in the assay with IL-2Rγc subunit, the “competition with phage clone peptide SEQ ID NO 266” value is on record as “+ (Peptide competes with phage binding.)” and the “competition with phage clone peptide SEQ ID NO 948” value is “−”.

As for 948 (SLLKCYNASTCASVF) [Peptide 948], in the assay with IL-2Rγc subunit, the “competition with phage clone peptide SEQ ID NO 198” value is listed as “−^2”, the “competition with phage clone peptide SEQ ID NO 224” value is “−”, the “competition with phage clone peptide SEQ ID NO 236” value is recorded as “−” and the “competition with phage clone peptide SEQ ID NO 248” value is on record as “−”. In the assay with IL-2Rγc subunit, the “competition with phage clone peptide SEQ ID NO 266” value is reported as “−” and the “competition with phage clone peptide SEQ ID NO 948” value was “+ (Peptide competes with phage binding.)”.

Regarding 948 (SLLKCYNASTCASVF) [compound 948], the “competition for binding to the IL-2Rγc binding site with the group of IL-2Rγc ligands” value with IL-2Rγc subunit is listed as “does not compete”.

As for 1042 (CYEVGDYCQSPL) [Peptide 1042], in assay [1], the “competition with phage clone peptide SEQ ID NO: 58” value is “+ (Peptide competes with phage binding.)”, the “competition with phage clone peptide SEQ ID NO: 170” value is reported as “+ (Peptide competes with phage binding.)”, the “competition with phage clone peptide SEQ ID NO: 83” value was “+ (Peptide competes with phage binding.)” and the “competition with phage clone peptide SEQ ID NO: 1034” value is given as “+ (Peptide competes with phage binding.)”. In assay [1], the “competition with phage clone peptide SEQ ID NO: 1044” value is “−”.

As to 1044 (RSCYYKRPRLWCSE) [Peptide 1044], in assay [1], the “competition with phage clone peptide SEQ ID NO: 58” value is given as “−^2”, the “competition with phage clone peptide SEQ ID NO: 170” value is on record as “−”, the “competition with phage clone peptide SEQ ID NO: 83” value was “−” and the “competition with phage clone peptide SEQ ID NO: 1034” value is reported as “−”. The “competition with phage clone peptide SEQ ID NO: 1044” value in assay [1] is given as “−”.

In the case of 1044 (RSCYYKRPRLWCSE) [compound 1044], in assay [1], the “competition for binding to the IL-2Rβ binding site with the group of IL-2Rβ ligands” value is “does not compete”.

As to “Compound A: heterodimer of SEQ. ID. NO: 58 and SEQ ID. NO. 224 (chain 1 YDCRIAQVGELCDL; chain 2 DCSMWEGVELCW; cysteine pairing not given here; also: heterodimer, linkage not given here)”, the “STAT5 phosphorylation (pSTAT5), Western Blot” value in the assay on NK-92 cells is listed as “induced (in a dose-responsive manner) STAT5 phosphorylation”.

Consider “Compound B: heterodimer of SEQ. ID. NO: 58 and SEQ ID. NO. 237 (chain 1 YDCRIAQVGELCDL; chain 2 LCFSEFLGEWVDCN; cysteine pairing not given here; also: heterodimer, linkage not given here)”, for which the “STAT5 phosphorylation (pSTAT5), Western Blot” value in the assay on NK-92 cells is “induced (in a dose-responsive manner) STAT5 phosphorylation”.
